Experimental findings from US20200140566A1 (CLEVELAND CLINIC FOUNDATION, published 2020) are described below.

Values joined by “and” are separate entries in the source; they are usually repeats but may differ in a detail not shown here. Equal entries are not always repeated.

The target of test [1] is T1, CD6 on Jurkat cells (human, UniProt P30203 18-668).
T1 construct: whole, on cells; the target is inferred from the antibodies' specificity
T1 sequence (looked up): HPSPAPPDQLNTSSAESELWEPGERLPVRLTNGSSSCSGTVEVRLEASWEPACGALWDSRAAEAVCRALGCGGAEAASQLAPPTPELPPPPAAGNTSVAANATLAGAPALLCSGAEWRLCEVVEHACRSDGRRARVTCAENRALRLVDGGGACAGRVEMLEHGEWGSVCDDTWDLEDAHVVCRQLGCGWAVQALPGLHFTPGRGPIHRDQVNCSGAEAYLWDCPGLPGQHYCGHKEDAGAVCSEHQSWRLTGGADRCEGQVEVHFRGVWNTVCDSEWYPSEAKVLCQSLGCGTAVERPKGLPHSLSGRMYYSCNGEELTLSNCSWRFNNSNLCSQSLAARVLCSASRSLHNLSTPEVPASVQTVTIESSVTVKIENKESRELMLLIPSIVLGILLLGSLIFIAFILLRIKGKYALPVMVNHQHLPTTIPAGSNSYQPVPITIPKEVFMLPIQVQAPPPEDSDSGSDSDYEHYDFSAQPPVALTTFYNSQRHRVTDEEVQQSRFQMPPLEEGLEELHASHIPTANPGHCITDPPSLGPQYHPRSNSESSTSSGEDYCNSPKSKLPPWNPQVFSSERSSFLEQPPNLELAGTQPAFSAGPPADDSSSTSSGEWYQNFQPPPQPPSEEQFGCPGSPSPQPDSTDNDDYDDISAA
As to the kind of experiment: flow cytometry on Jurkat cells, antibody at 80 pM. On the procedure:
(§1) Flow cytometric analysis was performed using the purified antibodies. Jurkat cells were grown to 70-80% confluence and harvested by centrifuge. About 4×10⁵ cells per well were washed with PBS twice. 200 μl of the culture supernatant was added to the cells and incubated at room temperature for 1 hour. After washing with PBS, antibody was added to the cells for the detection of bound humanized IgG. After 30 minutes incubation, the cells were washed twice with PBS and resuspended in PBS. Cells were analyzed for IgG binding by using FACS Calibur (BD Bioscience, San Jose, Calif.) and Flowjo software. The IC₅₀ was analyzed by GraphPad Prism.
(§2) The FACS binding assay was also performed for validation of the Jurkat cell/humanized antibody interaction. Three humanized antibodies show almost equal Jurkat cell binding activity as parent antibody.

The target of test [2] is T1, CD6 on Jurkat cells. Description: flow cytometry on Jurkat cells, antibody at 3.2 pM. On the procedure:
as §1, §2

In test [3] the target is T1, CD6 on Jurkat cells. Description: flow cytometry on Jurkat cells, antibody at 400 pM. On the procedure:
as §1, §2
On the technique in general: Flow cytometry measures light scatter and fluorescence of single cells or particles in a stream.

In test [4] the target is T1, CD6 on Jurkat cells. Description: flow cytometry on Jurkat cells, antibody at 0 pM (background). On the procedure: as §1, §2
The target in test [5] is T1, CD6 on Jurkat cells. Description: flow cytometry on Jurkat cells, antibody at 10000 pM. On the procedure: as §1, §2
The target in test [6] is T1, CD6 on Jurkat cells. Description: flow cytometry on Jurkat cells, antibody at 16 pM. On the procedure:
as §1, §2

Test [7] deals with T2, rhCD6-Fc (human, UniProt P30203 25-398, limits assumed).
T2 construct: also called rhCD6-Fc chimera; antigen rhCD6-Fc; not shown: Fc part
T2 sequence (looked up): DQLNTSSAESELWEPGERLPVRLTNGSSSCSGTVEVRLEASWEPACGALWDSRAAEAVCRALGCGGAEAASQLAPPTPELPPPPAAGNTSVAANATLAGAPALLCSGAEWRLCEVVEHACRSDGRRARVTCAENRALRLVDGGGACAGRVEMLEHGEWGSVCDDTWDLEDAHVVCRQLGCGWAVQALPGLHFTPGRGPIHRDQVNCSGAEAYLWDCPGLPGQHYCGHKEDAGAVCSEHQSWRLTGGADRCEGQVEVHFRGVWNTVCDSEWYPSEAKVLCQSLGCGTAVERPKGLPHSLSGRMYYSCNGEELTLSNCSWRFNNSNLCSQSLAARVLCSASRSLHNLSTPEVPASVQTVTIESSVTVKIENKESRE
As to the kind of experiment: SPR (BIAcore T200, 25 C), rhCD6-Fc immobilised on CM5, IgG injected 0.11-27 nM, 1:1 fit; column head misprinted 'Kd (1/Ms)'. On the procedure:
(§3) IgG antibodies were injected through flow cells at a flow rate of 30 μl/min with the concentration ranging from 0.11-27 nM (three-fold serial dilution). Association time was 700 s followed by 3600 s dissociation. At the end of each cycle, sensor surface was regenerated with 10 mM Glycine-HCl, pH 2.0 (100 μl/min, 12 s for 3 times). Responses of reference flow cell and buffer-only injection were double-subtracted from rhCD6-Fcflow cell during each antigen injection cycle. The data of dissociation (kd) and association (ka) rate constants were obtained by fitting binding data to 1:1 binding model using Biacore T200 evaluation software. The apparent equilibrium dissociation constants (KD) were calculated from the ratio of kd over ka.
(§4) Affinity analysis of antigen-antibody interaction. Binding data of each antibody was processed and fitted to 1:1 binding model using Biacore T200 evaluation software. All experiment data could be perfectly fitted to the model (FIG. 14).
In general terms: SPR reads the build-up and loss of mass on a sensor chip optically.

For test [8], the target named is T1, CD6 on Jurkat cells. Description: flow cytometry on Jurkat cells, antibody at 2000 pM. On the procedure: as §1, §2
Test [9] addresses T1, CD6 on Jurkat cells. Description: flow cytometry titration of direct binding on Jurkat cells (the filing calls the midpoint IC50), GraphPad Prism. On the procedure:
as §1, §2

For test [10], the target named is T2, rhCD6-Fc. Description: SPR (BIAcore T200, 25 C), rhCD6-Fc immobilised on CM5, IgG injected, apparent KD = kd/ka. On the procedure:
as §3, §4

Test [11] has as its target T2, rhCD6-Fc. Description: SPR (BIAcore T200), Fab-SASA from culture medium captured on immobilised BSA, rhCD6-Fc injected, 1:1 fit of off-rate. On the procedure: BSA was immobilized onto the sensor chip using amine coupling method. The selected Fab-SASA clones secreted to the culture medium were injected and captured by BSA via SASA (capture phase). After equilibration, antigen rhCD6-Fc was injected for 240 seconds (association phase) followed by the injection of running buffer for 720 seconds (dissociation phase). The surface was regenerated before the injection of another three Fab-SASA clones. The process was repeated until all antibodies were analyzed. Responses of reference flow cell were subtracted from those of Fab-SASA flow cells during each cycle. The binding curves of Fab-SASA clones were aligned at the start of association and normalized at 20 seconds after the stop of antigen injection using the BIAcore T200 evaluation software in order to display a more visualized comparison of antibodies. The off-rates of Fab-SASA clones were obtained from fitting the experimental data locally to 1:1 binding model. The antibodies were ranked by their dissociation rate constants Single cycle kinetics measurement was performed to verify the affinity ranking result. The selected Fab-SASA clones secreted to the culture medium were injected and captured by BSA via SASA (capture phase). After equilibration, a series of concentrations of antigen rhCD6-Fc (1, 3, 9, 27 and 81 nM) were injected for 500 seconds (association phase) followed by the injection of running buffer for 3000 seconds (dissociation phase). The surface was regenerated before another injection of Fab-SASA clones. Responses of reference flow cell and buffer-only injection were double-subtracted from those of Fab-SASA flow cells during each antigen injection cycle. The binding data were fitted to 1:1 binding model using the BIAcore T200 evaluation software.
Five back-mutation clones were constructed based on sequence of Fab2 and homology modeling. Each of DNA sequence encoding the five Fab fragments was inserted into pFASEBA vector for screening of the lead antibodies. The five clones along with Fab2 were screened against rhCD6-Fc for binding test and subsequent off-rate analysis by the BIAcore T200. Three clones were selected for IgG production and characterization due to the low dissociation rate using the BIAcore T200 evaluation software (Table 3).

B1: Humanized IgG6 (from Fab6) (antibody, V domains shown)
VH: QVQLQESGPGLVKPSETLSLTCTVSGFSLSRYSVHWIRQPPGKGLEWIGLIWGGGFTDYNSALKSRVTISKDNSKNQVSLKLSSVTAADTAVYYCAREGVAYWGQGTLVTVSS
VL: DVVMTQSPLSLPVTLGQPASISCKSSQSLLNSDGRTYLNWFQQRPGQSPRRLIYLVSKLDSGVPDRFSGSGSGTDFTLKISRVEAEDVGVYYCWQGTHFPFTFGPGTKVDIKR
notes: Human IgG1 / kappa
One may read the koff as the rate constant with which the complex falls apart. In general, kon refers to the rate constant with which the complex forms. The EC50 is the concentration at which the effect is half-maximal. Consider B1, for which the MFI was 14.8 in [1]; 6.68 in [2]; 35.3 in test [3]; 5.45 in [4]; 45.2 in test [5]; 7.9 in test [6]. In test [8], the MFI is 44.1. Further, the koff in test [7] was determined as 2.1e-05 s⁻¹. In addition, in test [7], the on-rate (kon) was found to be 650000 M⁻¹ s⁻¹. This molecule had an EC50 in test [9] of 0.197 nM. Further, the Kd in [10] was determined as 0.032 nM.

B2: Fab2 (Fab, V domains shown)
VH: QVQLQESGPGLVKPSETLSLTCTVSGFSLSRYSVHWVRQPPGKGLEWLGLIWGGGFTDYNSALKSRLTISKDNSKNQVSLKLSSVTAADTAVYYCAREGVAYWGQGTLVTVSS
VL: DVVMTQSPLSLPVTLGQPASISCKSSQSLLNSDGRTYLNWFQQRPGQSPRRLIYLVSKLDSGVPDRFSGSGSGTDFTLKISRVEAEDVGVYYCWQGTHFPFTFGPGTKVDIK
notes: Tested as Fab-SASA secreted into culture medium (pFASEBA vector); also called back-mutation 2; Fab2 clone from CDR grafting
As for B2, the koff in [11] was found to be 2.1e-05 s⁻¹.

B3: Fab4 (Fab, V domains shown)
VH: QVQLQESGPGLVKPSETLSLTCTVSGFSISRYSVHWIRQPPGKGLEWIGLIWGGGFTDYNSALKSRVTISKDNSKNQVSLKLSSVTAADTAVYYCAREGVAYWGQGTLVTVSS
VL: DVVMTQSPLSLPVTLGQPASISCKSSQSLLNSDGRTYLNWFQQRPGQSPRRLIYLVSKLDSGVPDRFSGSGSGTDFTLKISRVEAEDVGVYYCWQGTHFPFTFGPGTKVDIK
notes: Tested as Fab-SASA secreted into culture medium; also called back-mutation 4
For B3, the off-rate constant (koff) in test [11] is 1.9e-05 s⁻¹.

B4: Humanized IgG2 (from Fab2) (antibody, V domains shown)
VH: QVQLQESGPGLVKPSETLSLTCTVSGFSLSRYSVHWVRQPPGKGLEWLGLIWGGGFTDYNSALKSRLTISKDNSKNQVSLKLSSVTAADTAVYYCAREGVAYWGQGTLVTVSS
VL: DVVMTQSPLSLPVTLGQPASISCKSSQSLLNSDGRTYLNWFQQRPGQSPRRLIYLVSKLDSGVPDRFSGSGSGTDFTLKISRVEAEDVGVYYCWQGTHFPFTFGPGTKVDIKR
notes: VH2-hIgG1CH and VL-hIgKCL (human IgG1 / kappa)
B4: the MFI in test [1] was determined as 10.9; in test [2], 6.18; in test [3], 31; in test [4], 5.45; in test [5] it was 42.7; in [6], 6.8. This molecule also gave an MFI in test [8] of 45. Moreover, in [7], the off-rate constant (koff) came out at 1.3e-05 s⁻¹. For the same molecule, the on-rate constant (kon) in test [7] was 320000 M⁻¹ s⁻¹. In [9], this molecule gave a half-maximal effective concentration (EC50) of 0.275 nM. In test [10], the Kd was found to be 0.042 nM.

B5: Fab7 (Fab, V domains shown)
VH: QVQLQESGPGLVKPSETLSLTCTVSGGSISRYSVHWVRQPPGKGLEWLGLIWGGGFTDYNSALKSRLTISVDTSKNQFSLKLSSVTAADTAVYYCAREGVAYWGQGTLVTVSS
VL: DVVMTQSPLSLPVTLGQPASISCKSSQSLLNSDGRTYLNWFQQRPGQSPRRLIYLVSKLDSGVPDRFSGSGSGTDFTLKISRVEAEDVGVYYCWQGTHFPFTFGPGTKVDIK
notes: Tested as Fab-SASA secreted into culture medium; also called back-mutation 7
On to B5, for which the koff in test [11] was 0.00089 s⁻¹.

B6: Fab5 (Fab, V domains shown)
VH: QVQLQESGPGLVKPSETLSLTCTVSGGSLSRYSVHWVRQPPGKGLEWLGLIWGGGFTDYNSALKSRLTISVDTSKNQFSLKLSSVTAADTAVYYCAREGVAYWGQGTLVTVSS
VL: DVVMTQSPLSLPVTLGQPASISCKSSQSLLNSDGRTYLNWFQQRPGQSPRRLIYLVSKLDSGVPDRFSGSGSGTDFTLKISRVEAEDVGVYYCWQGTHFPFTFGPGTKVDIK
notes: Tested as Fab-SASA secreted into culture medium; also called Fab5 R; back-mutation 5
As to B6, in test [11], the dissociation rate constant (koff) was 0.00053 s⁻¹ and 0.00056 s⁻¹.

B7: Fab6 (Fab, V domains shown)
VH: QVQLQESGPGLVKPSETLSLTCTVSGFSLSRYSVHWIRQPPGKGLEWIGLIWGGGFTDYNSALKSRVTISKDNSKNQVSLKLSSVTAADTAVYYCAREGVAYWGQGTLVTVSS
VL: DVVMTQSPLSLPVTLGQPASISCKSSQSLLNSDGRTYLNWFQQRPGQSPRRLIYLVSKLDSGVPDRFSGSGSGTDFTLKISRVEAEDVGVYYCWQGTHFPFTFGPGTKVDIK
notes: Tested as Fab-SASA secreted into culture medium; also called back-mutation 6
Regarding B7, the koff in test [11] is 3.1e-05 s⁻¹.
